Results on two molecules are retold here after article PMC3099712 (The Journal of Biological Chemistry, 2011).

The target of series [1] is T1, mouse IGFLR1-Fc (extracellular domain of mouse IGFLR1 fused to human IgG1 Fc) (mouse, UniProt Q3U4N7 21-158).
T1 sequence (looked up): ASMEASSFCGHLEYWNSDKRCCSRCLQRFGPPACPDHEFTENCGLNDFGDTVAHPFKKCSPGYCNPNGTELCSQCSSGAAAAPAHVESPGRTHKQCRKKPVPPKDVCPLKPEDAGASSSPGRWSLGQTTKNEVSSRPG
The series is described as follows: SPR. Background: Surface plasmon resonance follows binding to a sensor surface in real time, without labels.

Series [2] deals with the molecule itself. Kind of series: SDS-PAGE under reducing and non-reducing conditions.

B1: FLAG-mIGFL (mouse insulin growth factor-like protein) (ligand)
chain: ARKISTFSGPGSWPCNPKCDGRTYNPSEECCVHDTILPFKRINLCGPSCTYRPCFELCCPESYSPKKKFIVKLKVHGERSHCSSSPISRNCKSNKIFHGEDIEDNQLSLRKKSGDQP
For orientation: Kd means the equilibrium constant for the complex coming apart. Low readings indicate tighter binding, high ones weaker binding. As a reminder, the koff is a measure of how fast the partners let go of each other. As a reminder, the kon is a measure of how fast the partners come together. Read a low kon as slower complex formation. In series [1], B1 displayed a Kd of 0.15 nM, a koff of 0.000157 s⁻¹ and a kon of 1.02e+06 M⁻¹ s⁻¹. The binding result in series [2] is on record as “binds”.

B2: FLAG-IGFL1 (human insulin growth factor-like family member 1) (ligand)
chain: GAPVAPMTPYLMLCQPHKRCGDKFYDPLQHCCYDDAVVPLARTQTCGNCTFRVCFEQCCPWTFMVKLINQNCDSARTSDDRLCRSVS
Take B2: the binding result in series [2] is given as “binds”.
